Values quoted from earlier work as cited in article PMC3081175.

Target: c-Met (Homo sapiens) (UniProt P08581)
UniProt P08581, sequence (P08581 25-932): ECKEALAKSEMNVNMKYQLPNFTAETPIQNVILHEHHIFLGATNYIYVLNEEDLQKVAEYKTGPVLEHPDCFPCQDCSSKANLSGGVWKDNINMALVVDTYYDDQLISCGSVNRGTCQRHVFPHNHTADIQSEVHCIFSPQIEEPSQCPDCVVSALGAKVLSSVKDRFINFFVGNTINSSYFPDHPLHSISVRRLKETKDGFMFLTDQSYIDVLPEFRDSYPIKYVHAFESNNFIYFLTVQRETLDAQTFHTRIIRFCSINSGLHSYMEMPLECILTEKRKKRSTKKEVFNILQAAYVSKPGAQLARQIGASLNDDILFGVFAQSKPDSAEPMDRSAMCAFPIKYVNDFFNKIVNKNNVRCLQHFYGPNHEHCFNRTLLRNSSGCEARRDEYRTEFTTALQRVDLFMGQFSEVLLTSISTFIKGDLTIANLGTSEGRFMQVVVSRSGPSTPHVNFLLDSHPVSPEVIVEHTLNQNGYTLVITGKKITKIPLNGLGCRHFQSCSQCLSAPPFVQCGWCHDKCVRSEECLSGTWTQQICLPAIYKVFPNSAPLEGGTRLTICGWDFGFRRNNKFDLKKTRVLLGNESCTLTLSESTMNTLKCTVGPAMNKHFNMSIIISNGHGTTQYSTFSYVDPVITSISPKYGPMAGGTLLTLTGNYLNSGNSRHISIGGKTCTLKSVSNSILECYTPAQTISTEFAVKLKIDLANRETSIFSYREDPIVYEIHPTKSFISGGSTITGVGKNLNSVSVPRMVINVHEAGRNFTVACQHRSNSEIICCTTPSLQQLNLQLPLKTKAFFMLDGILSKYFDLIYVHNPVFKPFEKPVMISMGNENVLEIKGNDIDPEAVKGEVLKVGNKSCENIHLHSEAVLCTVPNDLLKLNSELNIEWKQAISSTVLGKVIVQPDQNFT

Kd: 0.03 nM
Substance: HGF (from UniProt P14210)
